According to patent US20250171520A1:

Target: human CD63 (human) (UniProt P08962)
Assay: flow cytometry, HEK293 cells endogenously expressing human CD63

Chain of human CD63 (human) (P08962 2-238 limits assumed): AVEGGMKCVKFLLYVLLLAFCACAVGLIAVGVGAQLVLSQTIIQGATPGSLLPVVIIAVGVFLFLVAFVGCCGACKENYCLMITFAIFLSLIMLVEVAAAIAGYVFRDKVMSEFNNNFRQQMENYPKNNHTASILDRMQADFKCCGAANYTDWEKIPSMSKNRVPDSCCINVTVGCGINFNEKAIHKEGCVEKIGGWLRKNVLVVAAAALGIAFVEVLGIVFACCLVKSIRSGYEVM

Substance	HEK293 (S/N), MFI of antibody over wells with no antibody
Isotype Control 1 (antibody)	1.4
Isotype Control 2 (antibody)	1.5
